According to patent US11278600B2, “Human alpha-galactosidase variants” (Codexis, Inc., priority 2014, dated 2022):

B1: 580 (protein)
chain: LDNGLARTPTMGWLHWERFMCNLDCQEEPDSCISEKLFMEMAERMVSEGWKDAGYEYLCIDDCWMAPQRDSEGRLQADPQRFPHGIRQLANHVHSKGLKLGIYADVGNKTCAGFPGSFGYYDIDAQTFADWGVDLLKFDGCYCDSLENLADGYKHMSLALNRTGRSIVYSCEWPLYMWPFQKPNYTEIRQYCNHWRNFADIDDSWASIKSILDWTSRNQERIVDVAGPGGWNDPDMLVIGNFGLSRDQQVTQMALWAIMAAPLFMSNDLRHISPQAKALLQDKDVIAINQDPLGKQGYQLRKGDNFEVWERPLSGDAWAVAIINRQEIGGPRSYTIPVASLGKGVACNPACFITQLLPVKRQLGFYNWTSRLKSHINPTGTVLLQLENTMQMSLKDLL
modifications: Synthetic Polypeptide sequence of Variant No. 580 of mature Human GLA
B2: 520 (protein)
chain: LDNGLARTPTMGWLHWERFMCNLDCQEEPDSCISEKLFMEMAERMVSEGWKDAGYEYLCIDDCWMAPQRDSEGRLQSDPQRFPHGIRQLANHVHSKGLKLGIYADVGNKTCAGFPGSFGYYDIDAQTFADWGVDLLKFDGCYCDSLENLADGYKHMSLALNRTGRSIVYSCEWPLYMWPFQKPNYTEIRQYCNHWRNFADIDDSWASIKSILDWTSRNQERIVDVAGPGGWNDPDMLVIGNFGLSWDQQVTQMALWAIMAAPLFMSNDLRHISPQAKALLQDKDVIAINQDPLGKQGYQLRKGDNFEVWERPLSGDAWAVAIINRQEIGGPRSYTIPVASLGKGVACNPACFITQLLPVKRQLGFYNWTSRLKSHINPTGTVLLQLENTMQMSLKDLL
modifications: Synthetic Polypeptide sequence of Variant No. 520 of mature Human GLA
B3: 581 (protein)
chain: LDNGLARTPTMGWLHWERFMCNLDCQEEPDSCISEKLFMEMAERMVSEGWKDAGYEYLCIDDCWMAPQRDSEGRLQADPQRFPHGIRQLANHVHSKGLKLGIYADVGNKTCAGFPGSFGYYDIDAQTFADWGVDLLKFDGCYCDSLENLADGYKHMSLALNRTGRSIVYSCEWPLYMWPFQKPNYTEIRQYCNHWRNFADIDDSWASIKSILDWTSRNQERIVDVAGPGGWNDPDMLVIGNFGLSSDQQVTQMALWAIMAAPLFMSNDLRHISPQAKALLQDKDVIAINQDPLGKQGYQLRKGDNFEVWERPLSGDAWAVAIINRQEIGGPRSYTIPVASLGKGVACNPACFITQLLPVKRQLGFYNWTSRLKSHINPTGTVLLQLENTMQMSLKDLL
modifications: Synthetic Polypeptide sequence of Variant No. 581 of mature Human GLA
B4: 585 (protein)
chain: LDNGLARTPTMGWLHWERFMCNLDCQEEPDSCISEKLFMEMAERMVSEGWKDAGYEYLCIDDCWMAPQRDSEGRLQADPQRFPHGIRQLANHVHSKGLKLGIYADVGNKTCAGFPGSFGYYDIDAQTFADWGVDLLKFDGCYCDSLENLADGYKHMSLALNRTGRSIVYSCEWPLYMWPFQKPNYTEIRQYCNHWRNFADIDDSWASIKKILDWTSRNQERIVDVAGPGGWNDPDMLVIGNFGLSWDQQVTQMALWAIMAAPLFMSNDLRHISPQAKALLQDKDVIAINQDPLGKQGYQLRKGDNFEVWERPLSGDAWAVAIINRQEIGGPRSYTIPVASLGKGVACNPACFITQLLPVKRQLGFYNWTSRLKSHINPTGTVLLQLENTMQMSLKDLL
modifications: Synthetic Polypeptide sequence of Variant No. 585 of mature Human GLA
B5: 586 (protein)
chain: LDNGLARTPTMGWLHWERFMCNLDCQEEPDSCISEKLFMEMAERMVSEGWKDAGYEYLCIDDCWMAPQRDSEGRLQADPQRFPHGIRQLANHVHSKGLKLGIYADVGNKTCAGFPGSFGYYDIDAQTFADWGVDLLKFDGCYCDSLENLADGYKHMSLALNRTGRSIVYSCEWPLYMWPFQKPNYTEIRQYCNHWRNFADIDDSWASIKNILDWTSRNQERIVDVAGPGGWNDPDMLVIGNFGLSWDQQVTQMALWAIMAAPLFMSNDLRHISPQAKALLQDKDVIAINQDPLGKQGYQLRKGDNFEVWERPLSGDAWAVAIINRQEIGGPRSYTIPVASLGKGVACNPACFITQLLPVKRQLGFYNWTSRLKSHINPTGTVLLQLENTMQMSLKDLL
modifications: Synthetic Polypeptide sequence of Variant No. 586 of mature Human GLA
B6: 584 (protein)
chain: LDNGLARTPTMGWLHWERFMCNLDCQEEPDSCISEKLFMEMAERMVSEGWKDAGYEYLCIDDCWMAPQRDSEGRLQADPQRFPHGIRQLANHVHSKGLKLGIYADVGNKTCAGFPGSFGYYDIDAQTFADWGVDLLKFDGCYCDSLENLADGYKHMSLALNRTGRSIVYSCEWPLYMWPFQKPNYTEIRQYCNHWRNFADIDDSWASIKEILDWTSRNQERIVDVAGPGGWNDPDMLVIGNFGLSWDQQVTQMALWAIMAAPLFMSNDLRHISPQAKALLQDKDVIAINQDPLGKQGYQLRKGDNFEVWERPLSGDAWAVAIINRQEIGGPRSYTIPVASLGKGVACNPACFITQLLPVKRQLGFYNWTSRLKSHINPTGTVLLQLENTMQMSLKDLL
modifications: Synthetic Polypeptide sequence of Variant No. 584 of mature Human GLA
B7: 583 (protein)
chain: LDNGLARTPTMGWLHWERFMCNLDCQEEPDSCISEKLFMEMAERMVSEGWKDAGYEYLCIDDCWMAPQRDSEGRLQADPQRFPHGIRQLANHVHSKGLKLGIYADVGNKTCAGFPGSFGYYDIDAQTFADWGVDLLKFDGCYCDSLENLADGYKHMSLALNRTGRSIVYSCEWPLYMWPFQKPNYTEIRQYCNHWRNFADIDDSWASIKAILDWTSRNQERIVDVAGPGGWNDPDMLVIGNFGLSWDQQVTQMALWAIMAAPLFMSNDLRHISPQAKALLQDKDVIAINQDPLGKQGYQLRKGDNFEVWERPLSGDAWAVAIINRQEIGGPRSYTIPVASLGKGVACNPTCFITQLLPVKRQLGFYNWTSRLKSHINPTGTVLLQLENTMQMSLKDLL
modifications: Synthetic Polypeptide sequence of Variant No. 583 of mature Human GLA
B8: 582 (protein)
chain: LDNGLARTPTMGWLHWERFMCNLDCQEEPDSCISEKLFMEMAERMVSEGWKDAGYEYLCIDDCWMAPQRDSEGRLQADPQRFPHGIRQLANHVHSKGLKLGIYADVGNKTCAGFPGSFGYYDIDAQTFADWGVDLLKFDGCYCDSLENLADGYKHMSLALNRTGRSIVYSCEWPLYMWPFQKPNYTEIRQYCNHWRNFADIDDSWASIKAILDWTSRNQERIVDVAGPGGWNDPDMLVIGNFGLSWDQQVTQMALWAIMAAPLFMSNDLRHISPQAKALLQDKDVIAINQDPLGKQGYQLRKGDNFEVWERPLSGDAWAVAIINRQEIGGPRSYTIPVASLGKGVACNPACFITQLLPVKRQLGFYNWTSRLKSHINPTGTVLLQLENTMQMSLKDLL
modifications: Synthetic Polypeptide sequence of Variant No. 582 of mature Human GLA

Experiments:
Type in all cases: biochemical
[1] = HTP-analysis of supernatants pretreated with acid (MUGal hydrolysis); conditions: activity of the variant/activity of Rd3BB (SEQ ID NO: 13); challenge at pH 3.7
Procedure, shortened: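 MUGal hydrolysis was tracked by fluorescence (Ex 355 nm, Em 448 nm) after a 30-180 min reaction at 37° C. in pH 4.8 McIlvaine/citrate buffer, stopped with 1 M sodium carbonate. Beforehand, yeast (INVSc1) culture supernatants carrying GLA variants were held 1-3 h at 37° C. in acidic McIlvaine buffer, pH 3.3-4.3.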

[2] = HTP-analysis of yeast culture supernatants, no challenge (MUGal hydrolysis); conditions: activity of the variant/activity of Rd3BB (SEQ ID NO: 13)
Procedure, shortened: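 GLA variants expressed in yeast INVSc1, secreted into SD-Ura broth over 66-84 h at 30° C; clarified supernatants tested without challenge. Supernatant mixed with McIlvaine buffer pH 4.8 and 2 mM MUGal (citrate/KCl, pH 4.6), 37° C for 30-180 min, carbonate-quenched, fluorescence Ex 355/Em 448 nm.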

[3] = HTP-analysis of supernatants pretreated with base (MUGal hydrolysis); conditions: activity of the variant/activity of Rd3BB (SEQ ID NO: 13); challenge at pH 9.7
Procedure, shortened: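 GLA variants were secreted by transformed INVSc1 yeast grown 66-84 h at 30° C. Supernatants were exposed to neutral-to-basic buffers (pH 7.0-9.7) at 37° C for 1-18 h, then assayed with MUGal in acidic citrate/McIlvaine buffer, with fluorescence read after quenching.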

Row | Molecule | Relative Activity of GLA Variants After Challenge at pH 3.7 [1] | Relative Activity of GLA Variants After No Challenge (NC) [2] | Relative Activity of GLA Variants After Challenge at pH 9.7 [3]
1 | B1 | +++ (+++ = >10 relative activity over Rd3BB (SEQ ID NO: 13)) | + (+ = 1.5 to 5 relative activity over Rd3BB (SEQ ID NO: 13)) | ++ (++ = >5 to 10 relative activity over Rd3BB (SEQ ID NO: 13))
2 | B2 | + (+ = 1.5 to 5 relative activity over Rd3BB (SEQ ID NO: 13)) | + (+ = 1.5 to 5 relative activity over Rd3BB (SEQ ID NO: 13)) | + (+ = 1.5 to 5 relative activity over Rd3BB (SEQ ID NO: 13))
3 | B3 | ++ (++ = >5 to 10 relative activity over Rd3BB (SEQ ID NO: 13)) | + (+ = 1.5 to 5 relative activity over Rd3BB (SEQ ID NO: 13)) | ++ (++ = >5 to 10 relative activity over Rd3BB (SEQ ID NO: 13))
4 | B4 | + (+ = 1.5 to 5 relative activity over Rd3BB (SEQ ID NO: 13)) | + (+ = 1.5 to 5 relative activity over Rd3BB (SEQ ID NO: 13)) | ++ (++ = >5 to 10 relative activity over Rd3BB (SEQ ID NO: 13))
5 | B5 | ++ (++ = >5 to 10 relative activity over Rd3BB (SEQ ID NO: 13)) | + (+ = 1.5 to 5 relative activity over Rd3BB (SEQ ID NO: 13)) | ++ (++ = >5 to 10 relative activity over Rd3BB (SEQ ID NO: 13))
6 | B6 | + (+ = 1.5 to 5 relative activity over Rd3BB (SEQ ID NO: 13)) | + (+ = 1.5 to 5 relative activity over Rd3BB (SEQ ID NO: 13)) | ++ (++ = >5 to 10 relative activity over Rd3BB (SEQ ID NO: 13))
7 | B7 | + (+ = 1.5 to 5 relative activity over Rd3BB (SEQ ID NO: 13)) | + (+ = 1.5 to 5 relative activity over Rd3BB (SEQ ID NO: 13)) | ++ (++ = >5 to 10 relative activity over Rd3BB (SEQ ID NO: 13))
8 | B8 | + (+ = 1.5 to 5 relative activity over Rd3BB (SEQ ID NO: 13)) | + (+ = 1.5 to 5 relative activity over Rd3BB (SEQ ID NO: 13)) | ++ (++ = >5 to 10 relative activity over Rd3BB (SEQ ID NO: 13))
